Assay results: patent US20250145711A1 (Janssen / Centocor, published 2025)

What was measured:
[1] = target: T1, TRCW5 antigen (CD3δε-Fc-Avi) (biotinylated (site not stated)); assay: ELISA, E. coli scFv on biotinylated TRCW5
T1 construct: also called recombinant CD3
Description: Briefly, DNA was transformed into an E. coli expression vector to generate scFv molecules having a C-terminal HA-tag, and cells were plated on 2×YT/Carb/2% Glucose grown overnight at 37 C. Colonies were picked and transferred 50 ul of overnight growth cultures to new plates containing 500 ul of 2×YT/Carb/0.1% Glucose, grown for 6-7 hr, and combined with 50 ul 2×YT medium containing 1×carbenicillin & 12×IPTG. Cultures were incubated with shaking ˜600 RPM 30° C. overnight. Streptavidin coated plates were bound with 50 μL of biotinylated TRCW5 antigen (CD3δε-Fc-Avi, SEQ ID NO: 39) at the concentrations indicated in the ELISA graph for 45 min at room temperature with shaking (FIG. 1, FIG. 3, FIG. 4) followed by washing 3× with 1×TBST. Plates were blocked with 200 ul 3% Milk in 1×TBST for ˜45 mins at room temperature followed by washing 3× with 1×TBST. E. coli cultures were harvested by centrifugation at […] for 10 mins 4° C. and 50 μL of supernatant was transferred into CD3-coated plates followed by incubation at 4 C for 45 min. Plates were washed 3× with 1×TBST. Bound scFv was detected with Chicken Polyclonal Anti-HA-HRP (ab1190) [1:1000] for ˜45 mins RT and luminescence detected with chemi-luminescent substrate.

[2] = target: T1, TRCW5 antigen (CD3δε-Fc-Avi); assay: ELISA after heat
recombinant human PSMA = target: T2, recombinant human PSMA (human, UniProt Q04609 44-750); assay: SPR (Biacore 8K), antibody captured on anti-Fc, PSMA in solution; average of 2
T2 construct: also called hu PSMA; prostate-specific membrane antigen
Description: (§1) The binding affinity of anti-PSMA to the recombinant human or cynomolgus PSMA was determined by surface plasmon resonance (SPR) using a Biacore 8K instrument (ELN PSMA-00721). The antibodies were captured on a goat anti-Fc antibody-modified C1 chip and titrated with 3-fold serial dilutions of PSMA antigen spanning concentrations of 100 nM to 3.7 nM (human PSMA) or […] 22.2-600 nM for cyno PSMA. The association and dissociation were monitored for 3 and 60 minutes, respectively, using a flow rate of 50 μL/min. Raw binding data was referenced by subtracting the analyte binding signals from blanks and analyzed using a 1:1 Langmuir binding model by the Biacore Insight evaluation software to obtain the kinetics which were used to calculate the binding affinity. The anti-PSMA were captured using an anti-human Fc antibody and the antigens were injected in solution.

[3] = target: T3, recombinant cynomolgus PSMA (cynomolgus, UniProt A0A2K5VNZ0 44-750); assay: as above
T3 construct: also called cy PSMA; cyno PSMA
Description: as §1

T1 sequence (chain, as listed by the source mutant limits assumed): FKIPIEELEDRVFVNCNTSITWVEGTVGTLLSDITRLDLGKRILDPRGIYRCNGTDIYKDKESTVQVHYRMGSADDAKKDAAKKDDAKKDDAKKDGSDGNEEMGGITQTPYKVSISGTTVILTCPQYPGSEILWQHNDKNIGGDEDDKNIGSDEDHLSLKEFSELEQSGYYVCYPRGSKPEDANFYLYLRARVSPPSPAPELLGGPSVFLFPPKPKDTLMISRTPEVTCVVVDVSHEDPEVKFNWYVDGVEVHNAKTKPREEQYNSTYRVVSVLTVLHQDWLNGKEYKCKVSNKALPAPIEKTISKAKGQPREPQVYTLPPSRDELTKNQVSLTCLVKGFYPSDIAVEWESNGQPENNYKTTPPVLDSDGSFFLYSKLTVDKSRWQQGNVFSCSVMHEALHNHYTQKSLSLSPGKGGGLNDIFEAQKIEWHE
T2 sequence (Q04609 44-750 limits assumed): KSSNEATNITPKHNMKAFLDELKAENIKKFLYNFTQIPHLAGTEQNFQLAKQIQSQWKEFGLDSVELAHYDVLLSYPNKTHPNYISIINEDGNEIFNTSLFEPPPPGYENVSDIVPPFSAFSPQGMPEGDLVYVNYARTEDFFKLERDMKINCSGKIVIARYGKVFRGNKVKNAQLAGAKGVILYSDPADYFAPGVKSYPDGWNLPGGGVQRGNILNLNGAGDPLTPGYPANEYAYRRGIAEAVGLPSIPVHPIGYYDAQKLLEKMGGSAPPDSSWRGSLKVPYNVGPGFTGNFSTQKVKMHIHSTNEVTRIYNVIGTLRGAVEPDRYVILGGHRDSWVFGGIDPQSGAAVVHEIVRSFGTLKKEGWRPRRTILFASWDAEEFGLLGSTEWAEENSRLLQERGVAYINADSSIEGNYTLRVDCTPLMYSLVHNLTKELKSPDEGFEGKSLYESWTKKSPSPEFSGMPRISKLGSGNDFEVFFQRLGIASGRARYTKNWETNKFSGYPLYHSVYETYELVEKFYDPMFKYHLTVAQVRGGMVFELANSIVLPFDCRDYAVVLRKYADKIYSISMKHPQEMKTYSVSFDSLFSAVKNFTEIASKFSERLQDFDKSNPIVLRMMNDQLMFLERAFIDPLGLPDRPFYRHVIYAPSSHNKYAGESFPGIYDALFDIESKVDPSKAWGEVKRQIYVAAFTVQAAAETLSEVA

B1: CD3B1129 (scFv)
scFv: QVQLVQSGAEVKKPGSSVKVSCKASGYTFTRSTMHWVRQAPGQGLEWMGYINPSSAYTNYNQKFQGRVTLTADKSTSTAYMELSSLRSEDTAVYYCARPQVHYDYNGFPYWGQGTLVTVSSGGSEGKSSGSGSESKSTGGSDIQLTQSPSSLSASVGDRVTITCSASSSVSYMNWYQQKPGTSPKRLIYDSSKLASGVPSRFSGSGSGTDYTLTISSLQPEDFATYYCQQWSRNPPTFGGGTKVEIK
Work on B1 yielded an EC50 [1] of 712 pM.

B2: CD3B1130 (scFv)
scFv: QVQLVQSGAEVKKPGSSVKVSCKASGYTFTRSTMHWVRQAPGQGLEWMGYINPSSAYTNYNQKFQGRVTLTADKSTSTAYMELSSLRSEDTAVYYCARPQVHYDYNGFPYWGQGTLVTVSSGGSEGKSSGSGSESKSTGGSEIVLTQSPATLSLSPGERATLSCSASSSVSYMNWYQQKPGTSPRRLIYDSSKLASGIPARFSGSGSGRDYTLTISSLEPEDFAVYYCQQWSRNPPTFGGGTKVEIK
notes: also called IGHV1-69*02-IGHJ1-01 / IGKV3-11*02-IGKJ4-01 grafted construct, HL
In the case of B2, the “% Retained 55° C.” value [2] is reported as 90%, the “% Retained 60° C.” value [2] is reported as 11% and the “% Retained 65° C.” value [2] is reported as 1%. It also gave an EC50 [1] of 746 pM.

B3: CD3B1128 (scFv)
scFv: QVVLTQSPAIMSAFPGEKVTMTCSASSSVSYMNWYQQKSGTSPKRWIYDSSKLASGVPARFSGSGSGTSYSLTISSMETEDAATYYCQQWSRNPPTFGGGTKLQITGGSEGKSSGSGSESKSTGGSQVQLQQSGAELARPGASVKMSCKASGYTFTRSTMHWVKQRPGQGLEWIGYINPSSAYTNYNQKFKDKATLTADKSSSTAYMQLSSLTSEDSAVYYCASPQVHYDYNGFPYWGQGTLVTVSA
notes: also called Murine LH; murine Cris-7 scFv (LH)
B3 was tested, and the “% Retained 55° C.” value [2] was 10%, the “% Retained 60° C.” value [2] was 2% and the “% Retained 65° C.” value [2] was 3%. It also gave an EC50 [1] of about 437 pM.

B4: CD3B1131 (scFv)
scFv: EVQLVQSGAEVKKPGESLRISCKASGYTFTRSTMHWVRQMPGKGLEWMGYINPSSAYTNYNPSFQGHVTLSADKSISTAYLQWSSLKASDTAMYYCARPQVHYDYNGFPYWGQGTLVTVSSGGSEGKSSGSGSESKSTGGSDIQLTQSPSSLSASVGDRVTITCSASSSVSYMNWYQQKPGTSPKRLIYDSSKLASGVPSRFSGSGSGTDYTLTISSLQPEDFATYYCQQWSRNPPTFGGGTKVEIK
notes: also called CD381131
Work on B4 yielded an EC50 [1] of 1140 pM.

B5: CD3B1132 (scFv)
scFv: EVQLVQSGAEVKKPGESLRISCKASGYTFTRSTMHWVRQMPGKGLEWMGYINPSSAYTNYNPSFQGHVTLSADKSISTAYLQWSSLKASDTAMYYCARPQVHYDYNGFPYWGQGTLVTVSSGGSEGKSSGSGSESKSTGGSEIVLTQSPATLSLSPGERATLSCSASSSVSYMNWYQQKPGTSPRRLIYDSSKLASGIPARFSGSGSGRDYTLTISSLEPEDFAVYYCQQWSRNPPTFGGGTKVEIK
B5 was tested, and the EC50 [1] was about 1100 pM.

B6: CD3B1133 (scFv)
scFv: DIQLTQSPSSLSASVGDRVTITCSASSSVSYMNWYQQKPGTSPKRLIYDSSKLASGVPSRFSGSGSGTDYTLTISSLQPEDFATYYCQQWSRNPPTFGGGTKVEIKGGSEGKSSGSGSESKSTGGSQVQLVQSGAEVKKPGSSVKVSCKASGYTFTRSTMHWVRQAPGQGLEWMGYINPSSAYTNYNQKFQGRVTLTADKSTSTAYMELSSLRSEDTAVYYCARPQVHYDYNGFPYWGQGTLVTVSS
Work on B6 yielded an EC50 [1] of 958 pM.

B7: CD3B1134 (scFv)
scFv: DIQLTQSPSSLSASVGDRVTITCSASSSVSYMNWYQQKPGTSPKRLIYDSSKLASGVPSRFSGSGSGTDYTLTISSLQPEDFATYYCQQWSRNPPTFGGGTKVEIKGGSEGKSSGSGSESKSTGGSEVQLVQSGAEVKKPGESLRISCKASGYTFTRSTMHWVRQMPGKGLEWMGYINPSSAYTNYNPSFQGHVTLSADKSISTAYLQWSSLKASDTAMYYCARPQVHYDYNGFPYWGQGTLVTVSS
Binder B7 has an EC50 [1] of about 6.3 pM.

B8: PS3B1508 (bispecific antibody, human IgG1, lambda, L234A L235A)
chain: DIQMTQSPSSLSASVGDRVTITCRARQSIGTAIHWYQQKPGKAPKLLIKYASESISGVPSRFSGSGSGTDFTLTISSLQPEDFATYYCQQSGSWPYTFGQGTKLEIKGGSEGKSSGSGSESKSTGGSEVQLVESGGGLVKPGGSLRLSCAASGFTFSRYNMNWVRQAPGKGLEWVSSISTSSNYIYYADSVKGRFTFSRDNAKNSLDLQMSGLRAEDTAIYYCTRGWGPFDYWGQGTLVTVSSEPKSSDKTHTCPPCPAPEAAGGPSVFLFPPKPKDTLMISRTPEVTCVVVSVSHEDPEVKFNWYVDGVEVHNAKTKPREEQYNSTYRVVSVLTVLHQDWLNGKEYKCKVSNKALPAPIEKTISKAKGQPREPQVYTLPPSREEMTKNQVSLWCLVKGFYPSDIAVEWESNGQPENNYKTTPPVLDSDGSFFLYSKLTVDKSRWQQGNVFSCSVMHEALHNHYTQKSLSLSPGK
heavy: EVQLVESGGGLVQPGGSLRLSCAASGFTFSSYAMSWVRQAPGKGLEWVSAISGGIGSTYYADSVKGRFTISRDNSKNTLWLQMNSLRAEDTAVYYCAKDAVGATPYYFDYWGQGTLVTVSSASTKGPSVFPLAPSSKSTSGGTAALGCLVKDYFPEPVTVSWNSGALTSGVHTFPAVLQSSGLYSLSSVVTVPSSSLGTQTYICNVNHKPSNTKVDKKVEPKSCDKTHTCPPCPAPEAAGGPSVFLFPPKPKDTLMISRTPEVTCVVVSVSHEDPEVKFNWYVDGVEVHNAKTKPREEQYNSTYRVVSVLTVLHQDWLNGKEYKCKVSNKALPAPIEKTISKAKGQPREPQVYTLPPSREEMTKNQVSLSCAVKGFYPSDIAVEWESNGQPENNYKTTPPVLDSDGSFFLVSKLTVDKSRWQQGNVFSCSVMHEALHNRFTQKSLSLSPGK
light: QSVLTQPPSVSAAPGQKVTISCSGSSSNIGINYVSWYQQLPGTAPKLLIYDNNKRPSGIPDRFSGSKSGTSATLGITGLQTGDEADYYCGTWDSSLSAVVFGGGTKLTVLGQPKAAPSVTLFPPSSEELQANKATLVCLISDFYPGAVTVAWKADSSPVKAGVETTTPSKQSNNKYAASSYLSLTPEQWKSHRSYSCQVTHEGSTVEKTVAPTECS
notes: HC1 (Knob3): CD3W245-LH-scFv; HC2 (Hole3-RF) PSMB896-G100A-Fab-RF: IgG1 AAS; LC1 is given as NA; also called PS3B1508.003
In the case of B8, the Kd (recombinant human PSMA) is reported as 382 pM, the koff (recombinant human PSMA) is reported as 8.89e-05 s⁻¹ and the kon (recombinant human PSMA) is reported as 232000 M⁻¹ s⁻¹. It also gave a Kd [3] of 2200 pM, a koff [3] of 0.00323 s⁻¹ and a kon [3] of 1.46e+06 M⁻¹ s⁻¹.

B9: PS3B1396 (bispecific antibody, human IgG1, lambda, L234A L235A)
chain: EIVLTQSPATLSASPGERVTLSCSASSSVSYMNWYQQKPGQAPRRWIYDSSKLASGVPARFSGSGSGRDYTLTISSLEPEDFAVYYCQQWSRNPPTFGGGTKVEIKGGSEGKSSGSGSESKSTGGSQVQLVQSGAEVKKPGSSVKVSCKASGYTFTRSTMHWVKQAPGQGLEWIGYINPSSAYTNYNQKFQGRVTLTADKSTSTAYMELSSLRSEDTAVYYCASPQVHYDYAGFPYWGQGTLVTVSSEPKSSDKTHTCPPCPAPEAAGGPSVFLFPPKPKDTLMISRTPEVTCVVVSVSHEDPEVKFNWYVDGVEVHNAKTKPREEQYNSTYRVVSVLTVLHQDWLNGKEYKCKVSNKALPAPIEKTISKAKGQPREPQVYTLPPSREEMTKNQVSLWCLVKGFYPSDIAVEWESNGQPENNYKTTPPVLDSDGSFFLYSKLTVDKSRWQQGNVFSCSVMHEALHNHYTQKSLSLSPGK
heavy: EVQLVESGGGLVQPGGSLRLSCAASGFTFSSYAMSWVRQAPGKGLEWVSAISGGIGSTYYADSVKGRFTISRDNSKNTLWLQMNSLRAEDTAVYYCAKDAVGATPYYFDYWGQGTLVTVSSASTKGPSVFPLAPSSKSTSGGTAALGCLVKDYFPEPVTVSWNSGALTSGVHTFPAVLQSSGLYSLSSVVTVPSSSLGTQTYICNVNHKPSNTKVDKKVEPKSCDKTHTCPPCPAPEAAGGPSVFLFPPKPKDTLMISRTPEVTCVVVSVSHEDPEVKFNWYVDGVEVHNAKTKPREEQYNSTYRVVSVLTVLHQDWLNGKEYKCKVSNKALPAPIEKTISKAKGQPREPQVYTLPPSREEMTKNQVSLSCAVKGFYPSDIAVEWESNGQPENNYKTTPPVLDSDGSFFLVSKLTVDKSRWQQGNVFSCSVMHEALHNRFTQKSLSLSPGK
light: QSVLTQPPSVSAAPGQKVTISCSGSSSNIGINYVSWYQQLPGTAPKLLIYDNNKRPSGIPDRFSGSKSGTSATLGITGLQTGDEADYYCGTWDSSLSAVVFGGGTKLTVLGQPKAAPSVTLFPPSSEELQANKATLVCLISDFYPGAVTVAWKADSSPVKAGVETTTPSKQSNNKYAASSYLSLTPEQWKSHRSYSCQVTHEGSTVEKTVAPTECS
notes: HC1 (Knob3): CD3B2030-N106A-scFv LH, HC2 (Hole3): PSMB896-G100A-Fab; LC1 is given as NA; also called PS3B1396.002
Binder B9 has a Kd (recombinant human PSMA) of 395 pM, a koff (recombinant human PSMA) of 8.82e-05 s⁻¹ and a kon (recombinant human PSMA) of 224000 M⁻¹ s⁻¹. The Kd [3] was 5070 pM, the koff [3] was 0.0019 s⁻¹ and the kon [3] was 587000 M⁻¹ s⁻¹.

B10: CD3B1135 (scFv)
scFv: EIVLTQSPATLSLSPGERATLSCSASSSVSYMNWYQQKPGTSPRRLIYDSSKLASGIPARFSGSGSGRDYTLTISSLEPEDFAVYYCQQWSRNPPTFGGGTKVEIKGGSEGKSSGSGSESKSTGGSQVQLVQSGAEVKKPGSSVKVSCKASGYTFTRSTMHWVRQAPGQGLEWMGYINPSSAYTNYNQKFQGRVTLTADKSTSTAYMELSSLRSEDTAVYYCARPQVHYDYNGFPYWGQGTLVTVSS
B10 gave an EC50 [1] of 1040 pM.
